{"source": "patent US10208290B2", "about": "“Virion display array for profiling functions and interactions of human membrane proteins” (THE JOHNS HOPKINS UNIVERSITY, priority 2013, dated 2019)", "key": {"GPR77 [1]": {"biological_target": "T1, GPR77 (Homo sapiens, UniProt Q9P296)", "T1 construct": "gB:CD4 and gB:GPR77, express the full-length human membrane proteins at the gB locus under the control of native gB promoter; made in house; host or cells: HFT cells (telomerase-immortalised human foreskin fibroblasts) infected with recombinant HSV-1; purified extracellular virions", "T1 sequence (Q9P296 whole entry)": "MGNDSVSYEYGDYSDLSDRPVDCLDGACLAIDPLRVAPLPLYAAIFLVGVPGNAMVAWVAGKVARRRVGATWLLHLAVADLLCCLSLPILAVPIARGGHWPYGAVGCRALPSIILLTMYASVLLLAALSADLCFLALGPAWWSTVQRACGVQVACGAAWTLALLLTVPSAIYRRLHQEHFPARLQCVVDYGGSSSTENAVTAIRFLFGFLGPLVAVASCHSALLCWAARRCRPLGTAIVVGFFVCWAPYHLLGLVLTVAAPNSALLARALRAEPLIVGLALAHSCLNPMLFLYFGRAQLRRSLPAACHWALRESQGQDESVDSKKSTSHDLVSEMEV", "test": "Ligand binding assay on VirD Array", "conditions": "C5a at 1 μM, gB:GPR77 virions on VirD Array", "description": "(§1) Ligand binding assay on VirD Array. The VirD Array was blocked in TBST with 1% BSA for 1 h at room temperature with gentle shaking. C5a (Abcam) was labeled with Cy5 NHS Easter (GE Healthcare) and incubated on the VirD Array at 1 μM in ligand binding buffer (1 mM MgCl2, 2 mM CalCl2, 0.2% BSA, and 25 mM HEPES, pH 7.4) at room temperature for 1 h with gentle shaking. The array was washed for […] in ice-cold washing buffer (0.5 M NaCl in 10 mM HEPES, pH 7.4) for 3 times with shaking, dried by spinning, and scanned as described above."}, "GPR77 [2]": {"test_system": "GPR77", "test": "Ligand binding assay on VirD Array", "design": "species or system human", "conditions": "C5a at 1 μM", "description": "as §1"}}, "data": [{"molecule": "C5a: complement anaphylatoxin C5a, canonical ligand of GPR77 (Abcam), labeled with Cy5 (protein) TLQKKIEEIAAKYKHSVVKKCCYDGACVNNDETCEQRAARISLGPRCIKAFTECCVVASQLRANISHKDMQLGR", "values": [{"measurement": "binding of Cy5-labeled C5a to gB:GPR77 virions", "setting": "GPR77 [1]", "value": "weaker binding signals"}, {"measurement": "binding of Cy5-labeled C5a to GPR77-gC virions", "setting": "GPR77 [2]; GPR77-gC virions on VirD Array", "value": "strong binding activity"}, {"measurement": "binding of Cy5-labeled C5a to other virions", "setting": "GPR77 [2]; other virions on VirD Array (specificity)", "value": "no detectable signals"}]}]}
